These results are taken from the DeepSol protein solubility set.

This data set in a line: soluble on expression in E. coli; label from the status in PepcDB or PDB records.
With “MSLDIQSLDIQCEELSDARWAELLPLLQQCQVVRLDDCGLTEARCKDISSALRVNPALAELNLRSNELGDVGVHCVLQGLQTPSCKIQKLSLQNCCLTGAGCGVLSSTLRTLPTLQELHLSDNLLGDAGLQLLCEGLLDPQCRLEKLQLEYCSLSAASCEPLASVLRAKPDFKELTVSNNDINEAGVRVLCQGLKDSPCQLEALKLESCGVTSDNCRDLCGIVASKASLRELALGSNKLGDVGMAELCPGLLHPSSRLRTLWIWECGITAKGCGDLCRVLRAKESLKELSLAGNELGDEGARLLCETLLEPGCQLESLWVKSCSFTAACCSHFSSVLAQNRFLLELQISNNRLEDAGVRELCQGLGQPGSVLRVLWLADCDVSDSSCSSLAATLLANHSLRELDLSNNCLGDAGILQLVESVRQPGCLLEQLVLYDIYWSEEMEDRLQALEKDKPSLRVIS”, the “soluble on expression in E. coli” value is listed as “soluble”. On to “MKLLTLNCHSWQEENQIEKIQYLAKVIQEEEYDVIALQEVSQSIQAENVCGNKKKDNFGLLLLEELKALHVKDYNITWDFSHIGYDVYEEGLAIITKHNIIKEDTFFISENEDTTYWKTRKIVSTTIAYNGKDITFYSCHLGWWNDEEESFKGQVDRLMERVDSNKLAFLMGDFNNNARLKGEGYEYMMQKGLYDTYELAIEKDEGTTVQGEIAGWDENKHNLRIDLILCNQSKKVHSSKVIFNGTNRNVISDHFGVEVQLDI”, for which the “soluble on expression in E. coli” value was “not soluble”. To “MELFELFILDANGVPRGKLLHRDELLAVYRSGRPLPSTILGLTMNGEDVEDSGLVWDVGDIDCRAYPLSGSLVRLPWRQIPTAAVQVSMHPSEGLPASVADPRHLLVRTIDALKSEGYHPVMAAELEFYLLDRERDANGRPQPARDADGGRPRATQVYGLRELEQIEPFLADLYAACKAQGLPARTAISEYAPGQVEITLDHGDALAAMDQAIRYKRLVKGIAHKHGMLACFMAKPFDDLAGTGMHLHVSLADEQGHNLFASDDPAGTPLLRQAVGGMLASLLDSLLLFCPNANSYRRFQANSYAPLAQTWGVDNRTVSLRVPGGPASSRHIEHRICGADANPYLAAAALLAGVHRGIREGIDPGAPVEGNGYAQAGKRLPTDWLTALDTLQGSEWAREAFGEPFLGVYLAVKRAEYRQFMGEVGEQDWRWYL” belongs “not soluble”; to “MPTTVNDLLRTYPADLGGVDREAMARCIEECLRCAQACTACADACLSEPTVADLTKCIRTDMDCADVCTATAAVLSRHTGYDANVTRAVLQACATVCAACGDECARHAGMHEHCRVCAEACRSCEQACQELLAGLGLEHHHHHH”, “not soluble”; to “MTPDVLFESLWQDYIQRLCPSAAKVHQLLQEDEALINDHIALRTFNVEPLGIETLAKPFLAAGYKACGDYVFESKKLVAKHYEHPDPKQPKVFISELKVEECSPDLQDIVAKLASQVDAEKLSGSAFLHGGRLWDLSFADYQTLAKESEYASWLAAHGYGANHFTVSVNQLNQHDEVKQVNDHLRQAGFVINESGGEVKGSPEVLLEQSSTMADKVPVTFEEGLEIIPGGFYEFAKRYPMENGELYPGFVAASADKIFESTNGLEHHHHHH”, “soluble”.

In the case of “MGFDSPRGRGGGGFRGGRGGGSGFTPRGGGGGFRGGDRGRSPGGFRGGDRGRSSSGFRGGDRGRSPGGFRGDREGGFSPRGRGGGFRGGDRGGFRGGDRGGSPWRGGDRGNFRGGDRGGSPWRGGDRGVANRGRGDFSGGSRGGNKFSPRGGGRGGFTPRGRGGNDFSPRGGRGNFQSRGGGSRVGFSDKRKQYDSDGDDDEEEEVPKKKLATGTPFAKQTKPVEDDSGEDEEDEEESDEEPQPPKKTAKSAIATAAEDSDDDEEDDDEEEEESDDDAPQVKKSVAVEEDEEDEEDEEEIEMDEEDEEEEEDEEETEPVAKTPAVKSSLKSVDSTKGKQVNLSKVATPTTVDKKAPATPHPAKTSKNAAGDVPKLNFDDDSDEEDEEDEEVEEEDEEEEEEEEDVPAKKAPVLKQSLSQIAQAIEEDSDDEDEDEEEEEDEEDEEEEEDTTNVPLIKSKADLLKQIAANRAAASAAQDSDEDEDEEDEEDVEEEDEEEEEEEDIPAVKPKVTEKQGGVKRKLDEPTVASKQVKSDGKSIISEEERRRQDRDSRSLFIKEIAKKAKDAEITGLVTGLDSFRRKKNSNFGWLVFNTVADCKKAHDVLSKSKIQGKALYVDFCLSESKAPKEHGVRPINPLQLFINALPGTCNNTDLKNIFRSSTDIKILHASGQPNSKKRAFITFGTVEDAQAAFAKSNGLKVNNHLVDVFYARHQETKVDVKPKKAATPAVQKKIVPKVAADSSGDDSEEVASSDEGIQEVEEEQPKQKKLVKKVEPKTIPRVQQKKPQFKKTGFKGKK”, the “soluble on expression in E. coli” value is given as “not soluble”. To “MAEVLKKVDVVTVGAGWTGGIVAAELTKAGLNVLSLERGHMQSTENFNYIHDEWRYGINYGLMQDCSKDTVTFRHDPSGLALPYRKMGSFLLGNNVGGAGVHWNGWTFRFMPYDFEIQTLSKQRYGNKLGNDYTLQDWGVTYKDMEPYYDRFEKTCGVSGEPNPLAEKMGAFRSSPYPQEPLENTKMLKRFESAAKSSNLHTYRLPASNSKGGYTNPDGQDLAPCQYCAYCERFGCEYGAKASPLNTVIPKAMSTGKYTIRTYSNVTQILKKDGKVTGVKFVDTRTMKEYIQPADIVVLTSYMFNNAKLLMVSNIGEQYDPKTGKGTLGRNYCYQMNMGTTAFFDEQFNTFMGSGALGTTSDDFNGDNFDHSKEKFLHGAMIYSVQLGTRPIQSAPLPAGAPTWGAEFKKALNYNFTRAITVGGQGASLPHKNNYLSLDPTYKDAFGMPLLRLTYNFTDQDRALHKFITDKTAEVAKRMQGVKSIKKGAYLKDYSVVPYQSTHNTGGTTMGADRETSVVNTYLQHWDADNLFVVGAGNFQHNSGYNPTDTVGALAYRCAEGILKYHKSGKSLALEHHHHHH” belongs “not soluble”.

For the sequence “MGHHHHHHSAISVWRAVDYVRMPWKNGGGSTEEITRDAGTGLEGFGWRLSIADIGESGGFSSFAGYQRVITVIQGAGMVLTVDGEEQRGLLPLQPFAFRGDSQVSCRLITGPIRDFNLIYSPERYHARLQWVDGVQRFFSTAQTVLVFSVADEVKVLGEKLGHHDCLQVDGNAGLLDISVTGRCCLIELTQRG”, the “soluble on expression in E. coli” value is “soluble”. Take “MAHHHHHHMNYDKLNLFKENFDMMYVIEEIETHLHEKKHLLCDINENILISEKNKTSIDIYEKHLIEKQIQILKKNKINYKKLNNINYVKYFLPLCIQPKTNNTDKCLSERDVYMKNFKKKNILRELHVKKRLTEYRINQFIEKYTGKFLKNNVLHKQISKIYNNKSKIEIFIKGDNFSYNRVIGDIAFFDSKPNVLLENVKYIVRKRKKKKLNNIKKNINI”: the “soluble on expression in E. coli” value is listed as “not soluble”. The value for “GPGSMLTRSLVCRASLQSRRRWEQRIVSVLSENKEEGVDAVAKRFQRVYKERRYTPVEEAFPPLAAAAAAPGLRSSAAKESVESVQQPANPLVLRVAFLGPQNAGKTSLVNSMALSNVGAVSNRYGSTKDWTKAVATVHETQLLLLDTPGIVPRDTQRVRRKFASGTAKAYDALFVSDLVVLALPVGVGFVEKEHKVVATEVVRRAAGRELPVVIAMTMMDKVQTPWHRELYFAMRTDLESLGLPTAATHEVSVKGGSGLVELKDCLCQYAKPGAWEHYRREATDLNPPQRVAELLRQTFMELLPHEIPHCMRHRVLGWTRKESGTTEVVVEAFFDRPAYMFTFYGKLEAICLRAQQVTERELAPQRFRFVFQAFIAPGGLSNS” was “not soluble”; that for “MTDLTGILYIVATPIGNLQDITQRALETFAQVDLIAAEDTRHSGLLLSHYGIKKPFFALHDHNEQEKAHILVEKLKQGSNIALISDAGTPLISDPGFHLVRQCREAGIRVVPLPGACAAITALCASGIASDRFCFEGFLPAKSKARKDKLENIAEEDRTLIFYESTHRILDTLEDMQAVLGEERYIVLAREMTKTWETITGNTIKNLREWLLEDPNRTKGEMVLIVEGKPKSDNNDEISPQAVKALELIAEELPLKKAAAIVAELYGYKKNALYQFGLAHLEKLEHHHHHH” was “soluble”; that for “MSSFGHRAFFSCCLLLEGETLHSIKLRKEATYQPQSGWPVRWPIRYPRALPLASHVHPYHMIVKLPHPRTQPRLFLWLSLHWTGIPFLGKPGIGRNRVKSKQFSHFQQSKIKTTMRKKTTNRKQKAERCQYRLVTA” was “not soluble”. For “KHSCIAVIDAGSTGSRLHIYSYDTDDTNTPIHIEEIWNKKIKPGFASIQPNSVTIDAYLTMLLADAPIHNIPVYFYATAGMRLLPQSQQKKYYDELEYWFRQQSQWQLVEAKTITGNDEALFDWLAVNYKLDTLKSVQNKSVGVMDMGGASVQIVFPMPKNAEISKHNQVELNIYGQNINLYVHSFLGLGQTEMSHQFLNSPSCFANDYPLPDGESGQGNAPSCKEEVTSLMNSVHKVNQQIQPLLALNPVNEWYSIGGISNLASSQLFHFENSELTNQSLLQQGDNQICHQQWDILNGQYPDDEYLYQYCLLSSYYYALMVDGYGINPNQTIHYIPPEQNLDWTIGVVLHRA”, the “soluble on expression in E. coli” value is “soluble”. Turning to “VTTRDLTAAQFNETIQSSDMVLVDYWASWCGPCRAFAPTFAESSEKHPDVVHAKVDTEAERELAAAAQIRSIPTIMAFKNGKLLFNQAGALPPAALESLVQQLKAYEVEAGEATTQNGRAQQA”, the “soluble on expression in E. coli” value was “soluble”. “MIKTDLNDFAWFVHVVEEGGFAAAGRALDEPKSKLSRRIAQLEERLGVRLIQRTTRQFNVTEVGQTFYEHCKAMLVEAQAAQDAIAALQVEPRGIVKLTCPVTLLHVHIGPMLAKFMARYPDVSLQLEATNRRVDVVGEGVDVAIRVRPRPFEDSDLVMRVLADRGHRLFASPDLIARMGIPSAPAELSHWPGLSLASGKHIHRWELYGPQGARAEVHFTPRMITTDMLALREAAMAGVGLVQLPVLMVKEQLAAGELVAVLEEWEPRREVIHAVFPSRRGLLPSVRALVDFLTEEYARMVEE”: the “soluble on expression in E. coli” value is recorded as “not soluble”. The value for “MGSDKIHHHHHHMKKHKIGIYEKALPKNITWQERLSLAKACGFEFIEMSIDESNDRLSRLNWTKSERIALHQSIIQSGITIPSMCLSAHRRFPFGSKDKKIRQKSFEIMEKAIDLSVNLGIRTIQLAGYDVYYEKQDEETIKYFQEGIEFAVTLAASAQVTLAVEIMDTPFMSSISRWKKWDTIINSPWFTVYPDIGNLSAWNNNIEEELTLGIDKISAIHLKDTYPVTETSKGQFRDVPFGQGCVDFVHFFSLLKKLNYRGAFLIEMWTEKNEEPLLEIIQARKWIVQQMEKAGLLC” was “not soluble”; that for “MRCIMTEDAQKLAIMEQDVKIVRALSKIKHKIVVMSGKGGVGKSTVTVKLAEEFSRNGYSVCVLDADVHGPDIPKMMRVREPEITLTGNLINPIPTPVGATVMSIEFFLPSEDTPVIWRGPKKTGAIRQLLADVNWEGIDVLIVDNPPGTGDEPLTVLQSIPGIDGVVIVTTPQEVSIHDVEKCINMVNHLKIPVLGIIENMSYLQCPECGKKVFLFGKDGGKYLADKFDLQFLGEIPFETGISGDNESSASSYINNEMVKIFNKLAKYLKDGGANLEHHHHHH” was “soluble”.

For the sequence “MSSNPSSVEKKLLHYTGKAIADFNMIQRGDRVMVCLSGGKDSFTLLTILNQLRIKSGNKFEIFAFTLDQAQPGWNDACLRQWLAEKSIPHEILTRDTYSIVKEKIPEGKTYCSLCSRLRRGIIYRYAEENGFNKIALGHHRDDLVRTLMMSILYNGDIRSMPPKLLSDNKKHIVIRPLCYVQEKDIITFASEQAFPIIPCNLCGSQENLMRKKVASLIDQLAIENPKVPSNMLHALQSLKPSQLMDQNFWNFKNLEDGLETTQSIQCEEVFNAQEFELEDEKI”, the “soluble on expression in E. coli” value is reported as “not soluble”.
